According to publication PMC5003816:

Molecular target: HSP70 (mouse, endogenous), Q61696
Assay: UBQLN2 IP and western blot quantification (primary MEFs)
Settings: chain shown with the change; n = 3; read off a plot

Chain of HSP70 (mouse, endogenous), Q61696 (Q61696 whole entry): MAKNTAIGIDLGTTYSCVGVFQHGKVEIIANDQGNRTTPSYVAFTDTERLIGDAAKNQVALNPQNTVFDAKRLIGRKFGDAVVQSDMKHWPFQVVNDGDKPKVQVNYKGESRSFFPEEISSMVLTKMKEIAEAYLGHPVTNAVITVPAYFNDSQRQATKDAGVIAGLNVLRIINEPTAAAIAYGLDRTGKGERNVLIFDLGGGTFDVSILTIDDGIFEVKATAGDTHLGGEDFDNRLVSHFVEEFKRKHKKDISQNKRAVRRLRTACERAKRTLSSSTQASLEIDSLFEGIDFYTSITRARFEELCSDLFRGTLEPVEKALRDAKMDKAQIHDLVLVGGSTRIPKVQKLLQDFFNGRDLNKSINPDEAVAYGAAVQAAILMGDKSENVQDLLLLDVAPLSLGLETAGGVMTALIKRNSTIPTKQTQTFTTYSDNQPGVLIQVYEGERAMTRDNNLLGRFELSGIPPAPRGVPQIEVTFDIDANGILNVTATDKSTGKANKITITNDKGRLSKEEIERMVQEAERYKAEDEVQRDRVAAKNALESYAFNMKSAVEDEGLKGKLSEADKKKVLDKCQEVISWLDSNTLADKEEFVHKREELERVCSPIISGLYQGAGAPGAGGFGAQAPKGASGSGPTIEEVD

B1: UBQLN2 (mouse, endogenous, wild type), Q9QZM0 mP520T (protein)
chain: MAENGESSGPPRPSRGPAAAPGAASPPAEPKIIKVTVKTPKEKEEFAVPENSTVQQFKEAISKRFKSQTDQLVLIFAGKILKDQDTLMQHGIHDGLTVHLVIKSQNRPQGQATTQPSTTAGTSTTTTTTTTAAAPAATTSSAPRSSSTPTTTNSSSFGLGSLSSLSNLGLNSPNFTELQNQMQQQLLASPEMMIQIMENPFVQSMLSNPDLMRQLIMANPQMQQLIQRNPEISHLLNNPDIMRQTLEIARNPAMMQEMMRNQDLALSNLESIPGGYNALRRMYTDIQEPMLNAAQEQFGGNPFATVGSSSTSGEGTQPSRTENRDPLPNPWAPPPTTQTAATTTTTTTTSSGSGSGSSSSSTTAGNTMAAANYVASIFSTPGMQSLLQQITENPQLIQNMLSAPYMRSMMQSLSQNPDMAAQMMLSSPLFTSNPQLQEQMRPQLPNFLQQMQNPETIAAMSNPRAMQALMQIQQGLQTLATEAPGLIPSFAPGVGMGVLGTAITPVGPVTPIGPIGPIVTFTPIGPIGPIGPTGPASSPGSTGTGIPPATTVSSSAPTETISPTSESGPNQQFIQQMVQALTGGSPPQPPNPEVRFQQQLEQLNAMGFLNREANLQALIATGGDINAAIERLLGSQPS
With B1 the ratio to parent was 0.38.
